Experiments:
Assay in all cases: cell-based or functional assay
[1] = biological target: HIV Env of isolate CNE55 (HIV)
[2] = biological target: HIV Env of isolate YU2.DG (HIV) (UniProt P35961)
[3] = biological target: HIV Env of isolate 3873.v1.c24 (HIV)
[4] = biological target: Env of HIV isolate T257-31 (clade AG) (HIV)
[5] = biological target: HIV Env of isolate R2184.c4 (HIV)
[6] = biological target: HIV Env of isolate 57128.vrc15 (HIV)
[7] = biological target: HIV Env of isolate 3718.v3.c11 (HIV)
[8] = biological target: Env of HIV isolate Q769.d22 (clade A) (HIV)
[9] = biological target: Env of HIV isolate CE703010217.B6 (clade C) (HIV)
[10] = biological target: HIV Env of isolate NKU3006.ec1 (HIV)
[11] = biological target: HIV Env of isolate CNE19 (HIV)
[12] = biological target: HIV Env of isolate KNH1209.18 (HIV)
[13] = biological target: HIV Env of isolate BX08.16 (HIV)
[14] = biological target: HIV Env of isolate 3365.v2.c20 (HIV)
[15] = biological target: Env of HIV isolate Q461.e2 (clade AD) (HIV)
[16] = biological target: HIV Env of isolate 0921.v2.c14 (HIV)
[17] = biological target: Env of HIV isolate CNE15 (clade BC) (HIV)
[18] = biological target: Env of HIV isolate 5768.04 (clade B) (HIV)
[19] = biological target: Env of HIV isolate R2184.c4 (clade AE) (HIV)
[20] = biological target: HIV Env of isolate CAP45.G3 (HIV)
[21] = biological target: Env of HIV isolate JRFL.JB (clade B) (HIV)
[22] = biological target: Env of HIV isolate BJOX002000.03.2 (clade BC) (HIV)
[23] = biological target: Env of HIV isolate CH181.12 (clade BC) (HIV)
[24] = biological target: Env of HIV isolate CNE40 (clade BC) (HIV)
[25] = biological target: Env of HIV isolate 3415.v1.c1 (clade A) (HIV)
[26] = biological target: Env of HIV isolate HXB2.DG (clade B) (HIV)
[27] = biological target: Env of SIVmac251.30.SG3
[28] = biological target: Env of HIV isolate 6838.v1.c35 (clade C) (HIV)
[29] = biological target: HIV Env of isolate 271-11 (HIV)
[30] = biological target: Env of HIV isolate CH038.12 (clade BC) (HIV)
[31] = biological target: HIV Env of isolate 231965.c01 (HIV)
[32] = biological target: HIV Env of isolate X2131.C1.B5 (HIV)
[33] = biological target: Env of HIV isolate BX08.16 (clade B) (HIV)
[34] = biological target: HIV Env of isolate 0077.v1.c16 (HIV)
[35] = biological target: HIV Env of isolate BR07.DG (HIV)
[36] = biological target: Env of HIV isolate CNE30 (clade C in Table 7) (HIV)
[37] = biological target: Env of HIV isolate ZM55.28a (clade C) (HIV)
[38] = biological target: Env of HIV isolate AC10.29 (clade B) (HIV)
[39] = biological target: Env of HIV isolate Q769.h5 (clade A) (HIV)
[40] = biological target: Env of HIV isolate MS208.A1 (clade A) (HIV)
[41] = biological target: Env of HIV isolate 263-8 (clade AG) (HIV)
[42] = biological target: Env of HIV isolate UG037.8 (clade A) (HIV)
[43] = biological target: Env of HIV isolate 247-23 (clade D) (HIV)
[44] = biological target: Env of HIV isolate KNH1209.18 (clade A) (HIV)
[45] = biological target: Env of HIV isolate 3468.v1.c12 (clade AD) (HIV)
[46] = biological target: HIV Env of isolate Q461.e2 (HIV)
[47] = biological target: Env of HIV isolate BB539.2B13 (clade A) (HIV)
[48] = biological target: Envelope of SVA.MLV
[49] = biological target: Env of HIV isolate QH0515.01 (clade B) (HIV)
[50] = biological target: Env of HIV isolate CNE59 (clade AE) (HIV)
[51] = biological target: Env of HIV isolate ZM53.12 (clade C) (HIV)
[52] = biological target: Env of HIV isolate 0260.v5.c36 (clade A) (HIV)

HIV Env of isolate YU2.DG (HIV), sequence (P35961 32-843 limits assumed): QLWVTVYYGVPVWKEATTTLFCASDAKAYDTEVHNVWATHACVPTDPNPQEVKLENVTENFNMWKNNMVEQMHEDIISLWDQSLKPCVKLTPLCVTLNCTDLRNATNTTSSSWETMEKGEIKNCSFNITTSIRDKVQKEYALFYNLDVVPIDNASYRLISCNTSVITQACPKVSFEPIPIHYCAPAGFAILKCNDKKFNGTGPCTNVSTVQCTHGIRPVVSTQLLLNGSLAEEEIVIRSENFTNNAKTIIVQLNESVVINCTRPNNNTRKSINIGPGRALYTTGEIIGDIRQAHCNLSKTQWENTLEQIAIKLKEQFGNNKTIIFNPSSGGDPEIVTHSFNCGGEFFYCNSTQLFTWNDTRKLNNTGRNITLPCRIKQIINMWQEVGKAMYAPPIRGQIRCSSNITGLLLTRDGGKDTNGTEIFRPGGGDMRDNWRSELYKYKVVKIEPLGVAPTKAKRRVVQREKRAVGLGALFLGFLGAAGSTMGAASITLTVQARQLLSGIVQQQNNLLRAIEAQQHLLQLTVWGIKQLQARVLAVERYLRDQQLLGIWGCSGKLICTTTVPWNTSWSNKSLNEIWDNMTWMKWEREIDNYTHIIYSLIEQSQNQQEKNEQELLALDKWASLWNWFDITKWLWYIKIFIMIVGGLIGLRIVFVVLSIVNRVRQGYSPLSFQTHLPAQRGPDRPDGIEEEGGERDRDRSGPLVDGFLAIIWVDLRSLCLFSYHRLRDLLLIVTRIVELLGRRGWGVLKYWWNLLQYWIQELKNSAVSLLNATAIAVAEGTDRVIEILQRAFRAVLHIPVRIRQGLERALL

Substance: PGT121 (antibody)
- IC80 [1]: > 50 µg/mL
- IC80 [2]: 0.126 µg/mL
- IC80, pseudovirus neutralization [3]: 0.113 µg/mL
- IC50, pseudovirus neutralization [4]: > 50 µg/mL
- IC80 [5]: > 50 µg/mL
- IC80, pseudovirus neutralization [6]: > 50 µg/mL
- IC80 [7]: 4.76 µg/mL
- IC50, pseudovirus neutralization [8]: > 50 µg/mL
- IC50, pseudovirus neutralization [9]: 0.007 µg/mL
- IC80, pseudovirus neutralization [10]: > 50 µg/mL
- IC80, pseudovirus neutralization [11]: 0.041 µg/mL
- IC80 [12]: 0.0287 µg/mL
- IC80 [13]: 0.021 µg/mL
- IC80 [14]: 0.639 µg/mL
- IC50, pseudovirus neutralization [15]: > 50 µg/mL
- IC80, pseudovirus neutralization [16]: > 50 µg/mL
- IC50, pseudovirus neutralization [17]: 6.64 µg/mL
- IC50, pseudovirus neutralization [18]: 0.118 µg/mL
- IC50, pseudovirus neutralization [19]: > 50 µg/mL
- IC80, pseudovirus neutralization [20]: > 50 µg/mL
- IC50, pseudovirus neutralization [21]: 0.0397 µg/mL
- IC50, pseudovirus neutralization [22]: 0.026 µg/mL
- IC50, pseudovirus neutralization [23]: 0.0313 µg/mL
- IC50, pseudovirus neutralization [24]: 0.281 µg/mL
- IC50, pseudovirus neutralization [25]: > 50 µg/mL
- IC50, pseudovirus neutralization [26]: > 50 µg/mL
- IC80, pseudovirus neutralization [27]: > 50 µg/mL
- IC50, pseudovirus neutralization [28]: 0.0613 µg/mL
- IC80 [29]: > 50 µg/mL
- IC50, pseudovirus neutralization [30]: 0.0113 µg/mL
- IC80, pseudovirus neutralization [31]: > 50 µg/mL
- IC80, pseudovirus neutralization [32]: 0.036 µg/mL
- IC50, pseudovirus neutralization [33]: 0.00933 µg/mL
- IC80, pseudovirus neutralization [34]: > 50 µg/mL
- IC80 [35]: 0.596 µg/mL
- IC50, pseudovirus neutralization [36]: 0.114 µg/mL
- IC50, pseudovirus neutralization [37]: 0.0807 µg/mL
- IC50, pseudovirus neutralization [38]: 0.067 µg/mL
- IC50, pseudovirus neutralization [39]: > 50 µg/mL
- IC50, pseudovirus neutralization [40]: > 50 µg/mL
- IC50, pseudovirus neutralization [41]: 0.484 µg/mL
- IC50, pseudovirus neutralization [42]: 0.092 µg/mL
- IC50, pseudovirus neutralization [43]: > 50 µg/mL
- IC50, pseudovirus neutralization [44]: 0.0117 µg/mL
- IC50, pseudovirus neutralization [45]: 0.0763 µg/mL
- IC80 [46]: > 50 µg/mL
- IC50, pseudovirus neutralization [47]: > 50 µg/mL
- IC80, pseudovirus neutralization [48]: > 50 µg/mL
- IC50, pseudovirus neutralization [49]: 2.83 µg/mL
- IC50, pseudovirus neutralization [50]: > 50 µg/mL
- IC50, pseudovirus neutralization [51]: 0.00267 µg/mL
- IC50, pseudovirus neutralization [52]: 0.0587 µg/mL

Reference: patent US20210292396A1
